This note sets out measurements from publication PMC8594881.

What all share (format): biochemical, Streptomyces melanosporofaciens
Substrate in series [1]: CC(C)=CCC/C(C)=C/COP(=O)(O)OP(=O)(O)O
Put plainly: steady-state kinetics. The note with it: prenylation; saturating indole as co-substrate; Mg2+-dependent.

Substrate in series [2]: c1ccc2[nH]ccc2c1
Kind of series: steady-state kinetics. The note with it: prenylation acceptor; saturating GPP as co-substrate; Mg2+-dependent.

Substrate in series [3]: CC(C)=CCC/C(C)=C/CC/C(C)=C/CC/C(C)=C/COP(=O)(O)OP(=O)(O)O
Put plainly: steady-state kinetics, nonlinear fit of initial velocities. The note with it: cyclization reaction; Mg2+-dependent.

B1: cyclooctat-9-en-7-ol synthase (CotB2) (Streptomyces melanosporofaciens) (protein)
chain: MTTGLSTAGAQDIGRSSVRPYLEECTRRFQEMFDRHVVTRPTKVELTDAELREVIDDCNAAVAPLGKTVSDERWISYVGVVLWSQSPRHIKDMEAFKAVCVLNCVTFVWDDMDPALHDFGLFLPQLRKICEKYYGPEDAEVAYEAARAFVTSDHMFRDSPIKAALCTTSPEQYFRFRVTDIGVDFWMKMSYPIYRHPEFTEHAKTSLAARMTTRGLTIVNDFYSYDREVSLGQITNCFRLCDVSDETAFKEFFQARLDDMIEDIECIKAFDQLTQDVFLDLIYGNFVWTTSNKRYKTAVNDVNSRIQ
As for B1, the figures for the Km (in “steady-state kinetics [1]”; in “steady-state kinetics [2]”; in series [3]) were 390 ± 20 µM, 290 ± 60 µM and 43 ± 6 µM, respectively. In addition, the kcat result in series [3] is listed as “(6.7 ± 0.3) × 10^−3 s^−1”.
